Consider 1 molecule from article PMC4635315 (2015).

The target of one experiment is BARTL1 (CCDC104/CFAP36) (Homo sapiens, UniProt Q96G28). The experiment in a line: fluorescence polarization.
Experiment [1] addresses BARTL1 (CCDC104/CFAP36) 1-133 (Homo sapiens, UniProt Q96G28). In words: fluorescence polarization. For orientation: Fluorescence polarisation rises when a labelled molecule tumbles more slowly, as on binding a larger partner.

Sequence of BARTL1 (CCDC104/CFAP36) (Q96G28 whole entry): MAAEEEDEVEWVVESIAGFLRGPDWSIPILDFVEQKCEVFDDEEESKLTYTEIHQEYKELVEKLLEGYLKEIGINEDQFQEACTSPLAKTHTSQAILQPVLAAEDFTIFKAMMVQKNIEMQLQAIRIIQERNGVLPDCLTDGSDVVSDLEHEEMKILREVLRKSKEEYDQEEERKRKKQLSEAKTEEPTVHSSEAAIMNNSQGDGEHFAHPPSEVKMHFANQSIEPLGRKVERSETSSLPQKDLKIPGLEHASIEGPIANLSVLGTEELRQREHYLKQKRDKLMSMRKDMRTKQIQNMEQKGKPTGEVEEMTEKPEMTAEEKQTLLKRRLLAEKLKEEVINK
Sequence of BARTL1 (CCDC104/CFAP36) 1-133 (Q96G28 1-133): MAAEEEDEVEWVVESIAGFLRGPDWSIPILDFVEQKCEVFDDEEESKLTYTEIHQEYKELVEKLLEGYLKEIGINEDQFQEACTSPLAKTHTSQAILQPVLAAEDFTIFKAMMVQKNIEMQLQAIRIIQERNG

B1: Arl2 (protein)
chain: GLLTILKKMKQKERELRLLMLGLDNAGKTTILKKFNGEDVDTISPTLGFNIKTLEHRGFKLNIWDVGGQKSLRSYWRNYFESTDGLIWVVDSADRQRMQDCQRELQSLLVEERLAGATLLIFANKQDLPGALSCNAIQEALELDSIRSHHWRIQGCSAVTGEDLLPGIDWLLDDISSRVFTAD
modifications: mant-GppNHp-bound Arl2
The term Kd denotes the free concentration of one partner at which half of the binding sites on the other are occupied at equilibrium, for simple one-to-one binding. The low end stands for a tighter complex, the high end for a looser complex. Take B1: the results for the Kd (with BARTL1 (CCDC104/CFAP36); in experiment [1]) were about 10 µM and about 4.3 µM, respectively.
